Laboratory results as given in the supplement of paper PMC10126150.
± gives the standard deviation of the averaged measurements.

tested on: ATP; assay: switch fluorescence ratio, 500 uM ATP over buffer (Cy3 cluster intensity, sum of 5 cycles each) (fold (ratio)); higher = stronger signal-on switching upon ATP binding; sequences stand for … in TCGTCGGCAGCGTCAGATGTGTATAAGAGACAGTTTTTTTTTTTTTTTTTTTTTTTTT…TC; conditions: aptamer strand: ATP DNA aptamer (quencher-CACCTGGGGGAGTATTGCGGAGGAAGG + anchor), 100 nM annealed; ATP concentration: 500 uM
In short: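 Values give the fluorescence ratio for each switch-domain sequence, averaged from per-cluster ratios of summed target-cycle to summed buffer-cycle Cy3 intensity. The Cy3-labelled switching-strand clusters sat on a modified Illumina MiSeq flow-cell, were annealed to 100 nM quencher-labelled ATP aptamer, and were imaged in selection buffer, then after 15 min with 500 uM ATP at 22 °C. Five cycles ran with NaOH stripping and re-annealing between them, and clusters outside 100-1000 RFU were excluded.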
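Further: ATP exposure 15 min at 22 °C before imaging.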

CGTATTTTT and TATTCAGGGT are within error of each other in switch fluorescence ratio: 0.99 ± 0.018 for the first, 1.01 ± 0.028 for the second.

GAAGTAAAAA and GGTTGAAAAG are within error of each other in switch fluorescence ratio: 1.01 ± 0.026 for the first, 0.979 ± 0.015 for the second.

TGTGATGAT and TTGTATGTCT are within error of each other in switch fluorescence ratio: 1.01 ± 0.028 for the first, 0.991 ± 0.044 for the second.

TTGTGTGGGA and GGGCGGGGAA are within error of each other in switch fluorescence ratio: 1.02 ± 0.026 for the first, 1.03 ± 0.035 for the second.

Going from TTCAATGGCA to TTAAACGGAG, the switch fluorescence ratio rises from 1.0245 ± 0.00028 to 1.034 ± 0.0052.

Compared with TATAGTAGTG, CACAAGCACT is higher in switch fluorescence ratio: 0.973 ± 0.014 for the first, 1.28 ± 0.069 for the second.

TTAGGGGTTG and TGGTTTGGTG are within error of each other in switch fluorescence ratio: 0.979 ± 0.024 for the first, 0.985 ± 0.034 for the second.

Going from CTCAGACAGC to TTTGTTTGGC, the switch fluorescence ratio falls from 1.107 ± 0.0056 to 0.983 ± 0.019.

TCAGGATATG and GGGTAGAATG are within error of each other in switch fluorescence ratio: 0.988 ± 0.035 for the first, 1.02 ± 0.03 for the second.

GATAATCTGT and TTAACAGGAA are within error of each other in switch fluorescence ratio: 0.984 ± 0.048 for the first, 1.024 ± 0.0095 for the second.

ATAGCGGACA and CGGGGAAAGC are within error of each other in switch fluorescence ratio: 0.967 ± 0.033 for the first, 0.985 ± 0.027 for the second.

GGGGGGTGTT and GTGATATGGG are within error of each other in switch fluorescence ratio: 1.01 ± 0.019 for the first, 1.02 ± 0.036 for the second.

Compared with ACTTATTGTA, TGATGAGTCG is higher in switch fluorescence ratio: 0.9878 ± 0.0098 for the first, 1.0211 ± 0.00074 for the second.

ATGGAGGCTT and TGATTAAGAT are within error of each other in switch fluorescence ratio: 0.975 ± 0.018 for the first, 0.994 ± 0.026 for the second.

TATGTATCGC and CGGCCAACGC are within error of each other in switch fluorescence ratio: 1.13 ± 0.15 for the first, 1.17 ± 0.028 for the second.

First: TTTGGCTGGG
Second: CATCGGCGAT
The switch fluorescence ratio of the first is lower: 0.985 ± 0.02 for the first, 1.56 ± 0.038 for the second.

GGGTTTTGGG and TTTTTAGCGT are within error of each other in switch fluorescence ratio: 0.979 ± 0.064 for the first, 0.995 ± 0.027 for the second.

TGGGCAAGGT and TGGGGTTGTC are within error of each other in switch fluorescence ratio: 1.05 ± 0.038 for the first, 0.993 ± 0.034 for the second.

GAAGGGATGG and AGGATGGTGG are within error of each other in switch fluorescence ratio: 1.08 ± 0.15 for the first, 1.02 ± 0.037 for the second.

First: GTCCGTGTTA
Second: GAAGGTGTTG
The switch fluorescence ratio of the first is lower: 0.994 ± 0.037 for the first, 1.036 ± 0.0084 for the second.

TACGCGGGGT and CGATCTAGTA are within error of each other in switch fluorescence ratio: 1.29 ± 0.45 for the first, 0.97 ± 0.015 for the second.

CACGTCTAGG and GTGGTGATGT are within error of each other in switch fluorescence ratio: 1.05 ± 0.048 for the first, 1.02 ± 0.012 for the second.

ACGATCTTGC and TGAAGGGTGA are within error of each other in switch fluorescence ratio: 1.02 ± 0.035 for the first, 1.007 ± 0.0094 for the second.

TAAAAATCTT and GGATTAATCT are within error of each other in switch fluorescence ratio: 1.01 ± 0.041 for the first, 0.998 ± 0.019 for the second.

CTAAAACAGG and AATAAAAAGG are within error of each other in switch fluorescence ratio: 1.02 ± 0.03 for the first, 0.991 ± 0.019 for the second.

TGGTGGGCGA and AGCTCAATTA are within error of each other in switch fluorescence ratio: 1.04 ± 0.058 for the first, 1.02 ± 0.03 for the second.

TGTGTTTTGG and TTTTGGGGAT are within error of each other in switch fluorescence ratio: 0.99 ± 0.027 for the first, 1.01 ± 0.026 for the second.

ATTAAATGAT and AGTTTAGATG are within error of each other in switch fluorescence ratio: 0.9574 ± 0.002 for the first, 0.968 ± 0.02 for the second.

TTATATTTTG and CATGACGGTT are within error of each other in switch fluorescence ratio: 0.998 ± 0.017 for the first, 0.978 ± 0.046 for the second.

Going from TTCGGTCGTA to GAGTTCGTAA, the switch fluorescence ratio rises from 1.01 ± 0.053 to 1.46 ± 0.15.

GATAGGGCTT and GGAGGTAAGG are within error of each other in switch fluorescence ratio: 0.994 ± 0.056 for the first, 0.973 ± 0.025 for the second.

AAAGCTATTC and CTAATCATCT are within error of each other in switch fluorescence ratio: 1.12 ± 0.16 for the first, 1.01 ± 0.039 for the second.

GACGTTTCAG and TCCAGTTAGG are within error of each other in switch fluorescence ratio: 0.95 ± 0.02 for the first, 0.998 ± 0.051 for the second.

TGACTTGGGG and GTTTATTTTT are within error of each other in switch fluorescence ratio: 0.995 ± 0.033 for the first, 0.997 ± 0.023 for the second.

Going from TTTAAGGTAG to CGCATTGGGG, the switch fluorescence ratio rises from 0.993 ± 0.018 to 1.13 ± 0.037.

ATTTGAGTTT and TTATTACGTG are the same in switch fluorescence ratio: 1.01 ± 0.038 for the first, 1.01 ± 0.023 for the second.

TATATGTGGC and TGGAGGAGGG are within error of each other in switch fluorescence ratio: 1.07 ± 0.068 for the first, 1 ± 0.032 for the second.

Going from TGAACTTGAG to TGACGAGCGA, the switch fluorescence ratio rises from 1.01 ± 0.0062 to 2.25 ± 0.24.

TTCTACTAGT and TGATGGAGTA are within error of each other in switch fluorescence ratio: 0.98 ± 0.024 for the first, 0.969 ± 0.016 for the second.

CGGGGGGACG and CGGGGGTAGT are within error of each other in switch fluorescence ratio: 1.01 ± 0.084 for the first, 1.03 ± 0.015 for the second.

AAGTGGGTTT and CTATTTAGGG are within error of each other in switch fluorescence ratio: 1.02 ± 0.037 for the first, 0.996 ± 0.024 for the second.

First: CTCGCAGGAA
Second: CATCTATTTT
The switch fluorescence ratio of the first is higher: 1.75 ± 0.078 for the first, 1 ± 0.035 for the second.

GCCTGAGATG and TTTGTATTTA are the same in switch fluorescence ratio: 1.03 ± 0.017 for the first, 1.03 ± 0.041 for the second.

TTGACGTTGC and GTGGGGCGTT are within error of each other in switch fluorescence ratio: 1.01 ± 0.033 for the first, 1 ± 0.035 for the second.

First: ACATAGTGCT
Second: GATGAAAGGC
The switch fluorescence ratio of the first is lower: 1.004 ± 0.0077 for the first, 1.046 ± 0.0017 for the second.

AAAATCGGCG and GGTCTAGACG are within error of each other in switch fluorescence ratio: 1.05 ± 0.073 for the first, 1.01 ± 0.044 for the second.

GGATATACTT and CTCTTAAGGG are within error of each other in switch fluorescence ratio: 1.03 ± 0.024 for the first, 1.01 ± 0.018 for the second.

GGGATTTAGG and TATTAGTTTG are the same in switch fluorescence ratio: 0.997 ± 0.035 for the first, 0.997 ± 0.024 for the second.

CTTGATGTTG and GCGGTCGGGC are within error of each other in switch fluorescence ratio: 1.01 ± 0.012 for the first, 0.9952 ± 0.0076 for the second.

GGGGGGAGAC and TAAGGGGGCT are within error of each other in switch fluorescence ratio: 1.07 ± 0.19 for the first, 1.01 ± 0.034 for the second.

TGGTTTTGTT and TCGAACGTTG are within error of each other in switch fluorescence ratio: 1.01 ± 0.058 for the first, 1.034 ± 0.0026 for the second.

GGGGCAGCCG and ATTAGTACTG are within error of each other in switch fluorescence ratio: 1.01 ± 0.059 for the first, 1.02 ± 0.02 for the second.

First: CGCGCTACTT
Second: TTTGGCTTGG
The switch fluorescence ratio of the first is higher: 1.73 ± 0.039 for the first, 0.992 ± 0.031 for the second.

ATGGTTTAA and ACCGCGTGGG are within error of each other in switch fluorescence ratio: 1 ± 0.044 for the first, 1.04 ± 7.3e-05 for the second.

TGGTTCGTTA and GGAGTATATC are within error of each other in switch fluorescence ratio: 1 ± 0.05 for the first, 1.08 ± 0.073 for the second.

Going from TTCATCCGTA to GCCCTAGTGT, the switch fluorescence ratio falls from 1.39 ± 0.23 to 1.13 ± 0.024.

GCTAGTGGC and AAGGATGTGT are within error of each other in switch fluorescence ratio: 0.985 ± 0.079 for the first, 0.98 ± 0.012 for the second.

CTATGCTAGT and TAGTTTAGGT are within error of each other in switch fluorescence ratio: 1.01 ± 0.016 for the first, 0.9964 ± 0.0051 for the second.

Compared with AATAACAAAA, CGTCTGTCTC is higher in switch fluorescence ratio: 0.995 ± 0.037 for the first, 1.045 ± 0.005 for the second.

TTACGGGCTC and ACTTTGCTCT are within error of each other in switch fluorescence ratio: 0.985 ± 0.058 for the first, 1.032 ± 0.0064 for the second.

TGAGCCATCG and AATGGATGTT are within error of each other in switch fluorescence ratio: 0.987 ± 0.02 for the first, 1.05 ± 0.12 for the second.

CGTATTGGGG and CAGTGGTGGG are within error of each other in switch fluorescence ratio: 1.04 ± 0.017 for the first, 1.01 ± 0.04 for the second.

Compared with CGGCGAATAT, ACGGATTGAA is lower in switch fluorescence ratio: 1.024 ± 0.0011 for the first, 1.003 ± 0.0058 for the second.

AGAATGGGCA and TGGGCCTAAG are within error of each other in switch fluorescence ratio: 0.989 ± 0.029 for the first, 0.968 ± 0.061 for the second.

CGGTTTATGC and TTTTTGAGCG are within error of each other in switch fluorescence ratio: 1.09 ± 0.052 for the first, 1.04 ± 0.0024 for the second.

ACCAGGGGGG and AAGGTCCAGT are within error of each other in switch fluorescence ratio: 1.07 ± 0.058 for the first, 1.13 ± 0.23 for the second.

GAGCGACCTG and TTGATTTCAG are within error of each other in switch fluorescence ratio: 0.989 ± 0.016 for the first, 1.01 ± 0.013 for the second.

CTTTGGAGTG and TTCGTGGTTT are within error of each other in switch fluorescence ratio: 1.23 ± 0.38 for the first, 1.032 ± 0.0055 for the second.

CGTTCGGGGG and AGGTCGGCAT are within error of each other in switch fluorescence ratio: 1.01 ± 0.083 for the first, 0.997 ± 0.02 for the second.

ATTCTACGGC and AAATAGTCTG are within error of each other in switch fluorescence ratio: 1.06 ± 0.073 for the first, 0.972 ± 0.017 for the second.

TCATGGGGGT and TCTTAGTTCA are within error of each other in switch fluorescence ratio: 0.995 ± 0.028 for the first, 0.9825 ± 0.0062 for the second.

GTGAAAGATT and AAGGTATGTT are within error of each other in switch fluorescence ratio: 1.02 ± 0.041 for the first, 0.981 ± 0.021 for the second.

AAAGTGGCCC and CGATGGGCTA are within error of each other in switch fluorescence ratio: 0.997 ± 0.018 for the first, 1.02 ± 0.056 for the second.

AAATGGGTGA and ATTTTTGCGC are within error of each other in switch fluorescence ratio: 1.05 ± 0.017 for the first, 1.03 ± 0.055 for the second.

CGGGGATTTG and TTTTGAGATT are within error of each other in switch fluorescence ratio: 0.976 ± 0.032 for the first, 0.995 ± 0.011 for the second.

First: CTGTATATTT
Second: CGGTCCGGGT
The switch fluorescence ratio of the first is lower: 0.9593 ± 0.0055 for the first, 0.99721 ± 0.00018 for the second.

In the case of GCGTGATTTG, the switch fluorescence ratio is reported as 0.9959 ± 0.0045.
